Laboratory results: publication PMC8173049 (2021)

Molecular target: HAdV-D26 capsid (replication-defective, E1-deleted vector particle with a GFP-luciferase fusion expression … (human adenovirus D26))
Assay: SPR

B1: human lactoferrin (natural protein)
chain: GRRRSVQWCAVSQPEATKCFQWQRNMRKVRGPPVSCIKRDSPIQCIQAIAENRADAVTLDGGFIYEAGLAPYKLRPVAAEVYGTERQPRTHYYAVAVVKKGGSFQLNELQGLKSCHTGLRRTAGWNVPIGTLRPFLNWTGPPEPIEAAVARFFSASCVPGADKGQFPNLCRLCAGTGENKCAFSSQEPYFSYSGAFKCLRDGAGDVAFIRESTVFEDLSDEAERDEYELLCPDNTRKPVDKFKDCHLARVPSHAVVARSVNGKEDAIWNLLRQAQEKFGKDKSPKFQLFGSPSGQKDLLFKDSAIGFSRVPPRIDSGLYLGSGYFTAIQNLRKSEEEVAARRARVVWCAVGEQELRKCNQWSGLSEGSVTCSSASTTEDCIALVLKGEADAMSLDGGYVYTAGKCGLVPVLAENYKSQQSSDPDPNCVDRPVEGYLAVAVVRRSDTSLTWNSVKGKKSCHTAVDRTAGWNIPMGLLFNQTGSCKFDEYFSQSCAPGSDPRSNLCALCIGDEQGENKCVPNSNERYYGYTGAFRCLAENAGDVAFVKDVTVLQNTDGNNNEAWAKDLKLADFALLCLDGKRKPVTEARSCHLAMAPNHAVVSRMDKVERLKQVLLHQQAKFGRNGSDCPDKFCLFQSETKNLLFNDNTECLARLHGKTTYEKYLGPQYVAGITNLKKCSTSPLLEACEFLRK
Binder B1 has a Kd of 2.55 µM.
